Test [1] deals with T1, ActRIIA and ActRIIB (on TGFB/SMAD SBE Reporter HEK293 cells) (human).
Test [2] deals with T1, ActRIIA and ActRIIB (on TGFB/SMAD SBE …). This is another data set of the same source.
Test [3] shares this target. In words: cell-based or functional assay.
Test [4] has the same target. Description: cell-based or functional assay. The source holds these as a separate data set.
Test [5] shares this target. In words: cell-based or functional assay. The source holds these as a separate data set.
Test [6] shares this target. In words: cell-based or functional assay. The source holds these as a separate data set.
Test [7] has the same target. Description: cell-based or functional assay. The source holds these as a separate data set.
Test [8] concerns the target T2, human ActRIIA (human, UniProt P27037 20-135, limits assumed).
T2 construct: antigen in MSD-SET; also called ACVR2A; ActR2A
Description: MSD-SET.

The target of test [9] is T3, human ActRIIB (human, UniProt Q13705 19-137, limits assumed).
T3 construct: antigen in MSD-SET; also called ACVR2B; ActR2B
T3 sequence: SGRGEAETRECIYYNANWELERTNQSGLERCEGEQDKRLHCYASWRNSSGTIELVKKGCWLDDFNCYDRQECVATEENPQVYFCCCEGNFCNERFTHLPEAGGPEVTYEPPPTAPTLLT
Description: MSD-SET.

For test [10], the target named is T2, human ActRIIA. In words: MSD-SET. This is another data set of the same source.
Test [11] addresses T3, human ActRIIB. Description: MSD-SET. The source holds these as a separate data set.
Test [12] addresses T2, human ActRIIA. In words: MSD-SET. This is another data set of the same source.
The target in test [13] is T3, human ActRIIB. Description: MSD-SET. The source holds these as a separate data set.
Test [14] addresses T3, human ActRIIB. Description: MSD-SET. The source holds these as a separate data set.
The next test concerns the target mouse ActRIIA (mouse, UniProt P27038 20-135, limits assumed). In words: MSD-SET.
The target in the next test is Pig ActRIIA (pig, UniProt F1S0H6 20-135). Description: MSD-SET.
For test [15], the target named is T3, human ActRIIB. Description: MSD-SET, preliminary.
Test [16] addresses T3, human ActRIIB. In words: MSD-SET; Fab, not IgG.
The target in test [17] is T2, human ActRIIA. In words: MSD-SET. This is another data set of the same source.
The target in test [18] is T3, human ActRIIB. Description: MSD-SET; human ActRIIB; full-length IgG (Table 4B).
In test [19] the target is T2, human ActRIIA. In words: MSD-SET. This is another data set of the same source.
For test [20], the target named is T2, human ActRIIA. Description: MSD-SET, preliminary.

Read-outs that look alike come from different tables or passages of the source.

These results are taken from patent publication US20250243286A1 (SIXPEAKS BIO, published 2025).

The Kd is the equilibrium constant for the complex coming apart. Low readings indicate higher affinity, high ones lower affinity.

T2 sequence (P27037 20-135 limits assumed): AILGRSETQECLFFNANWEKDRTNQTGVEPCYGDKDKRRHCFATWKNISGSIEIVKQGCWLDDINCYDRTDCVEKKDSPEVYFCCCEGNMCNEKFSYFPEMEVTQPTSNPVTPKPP
Chain of mouse ActRIIA (P27038 20-135 limits assumed): as the sequence (P27037 20-135 limits assumed) above, with K20R, V73I counted along it

B1: Bimagrumab (antibody, V domains shown)
VH: QVQLVQSGAEVKKPGASVKVSCKASGYTFTSSYINWVRQAPGQGLEWMGTINPVSGSTSYAQKFQGRVTMTRDTSISTAYMELSRLRSDDTAVYYCARGGWFDYWGQGTLVTVSS
VL: QSALTQPASVSGSPGQSITISCTGTSSDVGSYNYVNWYQQHPGKAPKLMIYGVSKRPSGVSNRFSGSKSGNTASLTISGLQAEDEADYYCGTFAGGSYYGVFGGGTKLTVL
For the molecule B1, in [1], the IC50 (read off the curve); Activin-stimulated SMAD reporter gene assay was found to be 300 pM. This molecule also displayed an IC50 (read off the curve); Myostatin-stimulated SMAD reporter gene assay in test [2] of 400 pM. In test [3], this molecule registered an IC50, Myostatin SMAD RGA of 560 pM; an IC50, myostatin inhibition (SMAD RGA) of 292 pM; an IC50 [nM] (assay not given) of 0.517 nM; an IC90, Activin SMAD RGA of 9380 pM. In test [3], this molecule returned an IC90, Myostatin SMAD RGA of 13500 pM; an IC90 [nM] (assay not given) of 8.07 nM; an IC95, Activin SMAD RGA of 37900 pM; an IC95, Myostatin SMAD RGA of 55200 pM. Moreover, in test [3], the IC99, Activin SMAD RGA is 829 nM and the IC99, Myostatin SMAD RGA worked out at 2680 nM. Also, in [4], the IC50 [nM] (assay not given) worked out at 0.294 nM and the IC90 [nM] (assay not given) turned out to be 6.57 nM. In [5], this molecule showed an IC50, Activin SMAD RGA of 500 pM. In [6], this molecule came in with an IC50, Activin SMAD RGA of 320 pM; an IC95, Activin SMAD RGA of 19600 pM; an IC99, Activin SMAD RGA of 206 nM. The same molecule displayed an IC50, Myostatin SMAD RGA in [7] of 292 pM.

B2: Antibody Fasnetsküchla (antibody, V domains shown)
VH: QVQLVQSGAEVKKPGASVKVSCKASGYTFTSSYINWVRQAPGQGLEWMGTINAVSGSTSYAQKFQGRVTMTRDTSISTAYMELSRLRSDDTAVYYCARGGWFDYWGQGTLVTVSS
VL: QSALTQPASVSGSPGQSITISCTGTSSDVGSANYVNWYQQHPGKAPKPMIYGVSRRPSGVSNRFSGSKSGNTASLTISGLQAEDEADYYCGTFAGGKYYGVFGGGTKLTVL
notes: full-length IgG
For the molecule B2, the Kd with human ActRIIA [8] is 29 pM; in the test with human ActRIIB [9], 8 pM; with human ActRIIA [10] it was 29 pM; with human ActRIIB [11], 8 pM. The molecule also returned an IC50 (read off the curve); Activin-stimulated SMAD reporter gene assay in test [1] of 300 pM. For the same molecule, the IC50 (read off the curve); Myostatin-stimulated SMAD reporter gene assay in test [2] stood at 700 pM. The IC50, Activin SMAD RGA in [3] amounted to 347 pM; in test [5] it was 430 pM. In addition, the IC50, Myostatin SMAD RGA in [3] was 513 pM; in test [5], 480 pM. Moreover, the IC90, Activin SMAD RGA in test [3] turned out to be 3820 pM. The IC90, Myostatin SMAD RGA in [3] turned out to be 4630 pM.

B3: Antibody Rippla (antibody, V domains shown)
VH: QVQLVQSGAEVRKPGASVKVSCKASGYTFTSSYINWVRQAPGQGLEWMGTINPVSGSTSYAQKFQGRVTMTRDTSISTAYMELSRLRSDDTAVYYCARGGWFDYWGQGTLVTVSS
VL: QSALTQPASVSGSPGQSITISCTGTSSDVGSYNRVNWYQQHPGKAPKLMIYGVSKRESGVSNRFSGSKSGNTASLTISGLQAEDEADYYCGTFAGGRYYGVFGGGTKLTVL
notes: full-length IgG; also called Ripp1a
On to B3, for which, in the test with human ActRIIA [12], the “Fold Difference to bimagrumab” value came out at 4 fold and the Kd turned out to be 41 pM. For the same molecule, the affinity in the test with human ActRIIA [8], expressed as Kd, was 41 pM. In the test with human ActRIIB [9], this molecule showed a Kd of 5 pM. For the same molecule, the Kd with human ActRIIA [10] was 42 pM. The same molecule showed a Kd in the test with human ActRIIB [11] of 5 pM. Moreover, the IC50 (read off the curve); Activin-stimulated SMAD reporter gene assay in test [1] was determined as 200 pM. The IC50 (read off the curve); Myostatin-stimulated SMAD reporter gene assay in [2] was determined as 200 pM. For the same molecule, in test [3], the IC50, Activin SMAD RGA turned out to be 58.2 pM; the IC50, Myostatin SMAD RGA was 213 pM; the IC50 [nM] (assay not given) was 0.0209 nM; the IC50 fold difference to bimagrumab (assay not given) stood at 25.6 fold. In test [3], this molecule came in with an IC90, Activin SMAD RGA of 1580 pM; an IC90, Myostatin SMAD RGA of 9650 pM; an IC90 [nM] (assay not given) of 1.27 nM; an IC90 fold difference to bimagrumab (assay not given) of 6.33 fold. Also, in test [5], the IC50, Activin SMAD RGA stood at 90 pM and the IC50, Myostatin SMAD RGA came out at 150 pM.

B4: Ofaschlupfer Fab (Fab, V domains shown)
VH: QVQLVQSGAEVKKPGSSVKVSCKASGYTFTSSYINWVRQAPGQGLEWMGTINAVSGSTSYAQKFQGRVTITADTSTSTAYMELSSLRSEDTAVYYCARGGWFDYWGQGTLVTVSS
VL: QSALTQPRSVSGSPGQSVTISCTGTSSDVGSKNYVNWYQQHPGKAPKLMIYGVSKRESGVPDRFSGSKSGNTASLTISGLQAEDEADYYCGTFAGGKYYGVFGGGTKLTVL
notes: Fab
In the case of B4, the Kd with human ActRIIB [13] turned out to be 3.3 pM; in the test with human ActRIIB [14] it was 2 pM; with mouse ActRIIA, 18 pM; with Pig ActRIIA, 10 pM; with human ActRIIB [15] it was 25.3 pM.

B5: Hefaknöpfla Fab (Fab, V domains shown)
VH: QVQLVQSGAEVKKPGASVKVSCKASGYTFTSSYINWVRQAPGQGLEWMGTINAVSGSTSYAQKFQGRVTMTRDTSISTAYMELSRLRSDDTAVYYCARGGWFDYWGQGTLVTVSS
VL: QSALTQPASVSGSPGQSITISCTGTSSDVGSKNYVNWYQQHPGKAPKLMIYGVSKRESGVSNRFSGSKSGNTASLTISGLQAEDEADYYCGTFAGGKYYGVFGGGTKLTVL
notes: Fab
For the molecule B5, the Kd with human ActRIIA [10] was 91 pM. Binding with human ActRIIB [16] was put at a Kd of 228 pM. In [5], this molecule yielded an IC50, Activin SMAD RGA of 4060 pM; an IC50, Myostatin SMAD RGA of 3700 pM; an IC50 fold difference (Fab:IgG), Activin SMAD RGA of 31.5 fold; an IC50 fold difference (Fab:IgG), Myostatin SMAD RGA of 14.2 fold.

B6: Antibody Riaba (antibody, V domains shown)
VH: QVQLVQSGAEVKKPGASVKVSCKASGYTFTSSYINWVRQAPGQGLEWMGTINAVSGSTSYAQKFQGRVTMTRDTSISTAYMELSRLRSDDTAVYYCARGGWFDYWGQGTLVTVSS
VL: QSALTQPASVSGSPGQSITISCTGTSSDVGSYNYVNWYQQHPGKAPKLMIYGVSKRDSGVSNRFSGSKSGNTASLTISGLQAEDEADYYCGTFAGGKYYGVFGGGTKLTVL
notes: full-length IgG
B6: in the test with human ActRIIA [17], the “Fold Difference to bimagrumab” value came to 10 fold and binding was put at a Kd of 14 pM. In the test with human ActRIIA [8], this molecule displayed a Kd of 14 pM. The molecule further came in with a Kd in the test with human ActRIIA [10] of 14 pM. In [3], this molecule registered an IC50, Activin SMAD RGA of 134 pM; an IC50, Myostatin SMAD RGA of 263 pM; an IC90, Activin SMAD RGA of 2140 pM; an IC90, Myostatin SMAD RGA of 2180 pM. Besides, in [4], the IC50 [nM] (assay not given) is 0.0371 nM, the IC50 fold difference to bimagrumab (assay not given) amounted to 7.96 fold, the IC90 [nM] (assay not given) amounted to 1.6 nM and the IC90 fold difference to bimagrumab (assay not given) stood at 4.11 fold. For the same molecule, in test [5], the IC50, Activin SMAD RGA amounted to 140 pM and the IC50, Myostatin SMAD RGA came to 330 pM. The molecule further came in with a Kd in the test with human ActRIIB [18] of 4 pM.

B7: Antibody Bäradreck (antibody, V domains shown)
VH: QVQLVQSGAEVKKPGSSVKVSCKASGYTFTSSYINWVRQAPGQGLEWMGTINPVSGSTSYAQKFQGRVTITADTSTSTAYMELSSLRSEDTAVYYCARGGWFDYWGQGTLVTVSS
VL: QSALTQPRSVSGSPGQSVTISCTGTSSDVGSYNYVNWYQQHPGKAPKLMIYGVSKRPSGVPDRFSGSKSGNTASLTISGLQAEDEADYYCGTFAGGSYYGVFGGGTKLTVL
notes: full-length IgG
With B7, the Kd with human ActRIIA [19] amounted to 112 pM. For the same molecule, in the test with human ActRIIB [13], binding was characterised by a dissociation constant (Kd) of 63.8 pM. This molecule also gave a Kd with human ActRIIA [20] of 112 pM. The molecule further registered a Kd with human ActRIIB [15] of 63.8 pM. In [3], this molecule yielded an IC50, Activin SMAD RGA of 256 pM; an IC50, Myostatin SMAD RGA of 255 pM; an IC50, myostatin inhibition (SMAD RGA) of 255 pM; an IC90, Activin SMAD RGA of 4990 pM. The molecule further returned an IC90, Myostatin SMAD RGA in [3] of 4050 pM.
